T1: human ferroportin (SLC40A1) fused in frame with GFP (human, UniProt Q9NP59 1-571)
T1 sequence (looked up): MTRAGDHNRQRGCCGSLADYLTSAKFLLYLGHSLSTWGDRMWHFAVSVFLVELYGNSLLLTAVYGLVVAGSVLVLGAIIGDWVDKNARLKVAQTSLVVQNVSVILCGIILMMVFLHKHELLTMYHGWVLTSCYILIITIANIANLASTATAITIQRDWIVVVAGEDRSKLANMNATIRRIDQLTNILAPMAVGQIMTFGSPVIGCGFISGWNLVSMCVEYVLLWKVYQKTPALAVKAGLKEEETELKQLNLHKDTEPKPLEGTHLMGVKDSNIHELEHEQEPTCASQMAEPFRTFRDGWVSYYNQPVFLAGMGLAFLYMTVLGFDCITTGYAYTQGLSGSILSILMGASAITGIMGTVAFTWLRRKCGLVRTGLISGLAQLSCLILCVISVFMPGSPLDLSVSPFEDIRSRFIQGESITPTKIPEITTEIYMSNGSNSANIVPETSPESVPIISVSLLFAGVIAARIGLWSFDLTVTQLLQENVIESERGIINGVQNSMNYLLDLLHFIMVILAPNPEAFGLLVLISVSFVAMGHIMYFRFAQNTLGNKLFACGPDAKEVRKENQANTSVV

T2: human ferroportin (SLC40A1) fused in frame with GFP (human) (UniProt Q9NP59)
T2 sequence (looked up): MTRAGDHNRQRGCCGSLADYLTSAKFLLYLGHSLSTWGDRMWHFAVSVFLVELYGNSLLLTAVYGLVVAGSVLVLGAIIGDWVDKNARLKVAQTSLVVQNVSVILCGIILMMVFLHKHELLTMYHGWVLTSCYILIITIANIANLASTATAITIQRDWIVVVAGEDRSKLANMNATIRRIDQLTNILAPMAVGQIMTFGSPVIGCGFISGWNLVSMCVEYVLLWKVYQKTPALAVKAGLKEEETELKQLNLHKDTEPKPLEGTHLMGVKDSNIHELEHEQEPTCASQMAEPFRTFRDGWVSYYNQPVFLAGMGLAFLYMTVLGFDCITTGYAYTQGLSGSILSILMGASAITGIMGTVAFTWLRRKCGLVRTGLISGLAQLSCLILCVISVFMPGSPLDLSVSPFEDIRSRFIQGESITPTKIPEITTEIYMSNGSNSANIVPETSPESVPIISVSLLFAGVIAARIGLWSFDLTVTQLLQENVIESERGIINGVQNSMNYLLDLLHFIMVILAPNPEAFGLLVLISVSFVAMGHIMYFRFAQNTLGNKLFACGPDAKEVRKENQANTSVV

B1: Compd. ID 1 (peptide)
peptide: Isovaleryl-DTH[Dip]PCI[Dap]([Dap-Palmitoyl])[β3hF]C-NH2
modifications: disulfide 6-10 (inferred)
B2: Seq. No. 346 (peptide)
peptide: Isovaleryl-DTH[Dip][Npc]CI[dK][Phe(3,4-F2)]K([PEG12-Palmitoyl])KC-NH2
modifications: disulfide 6-12 (inferred)
B3: Seq. No. 344 (peptide)
peptide: DTHXPCIKFKKX
modifications: N-term isovaleric acid; 4 Dpa; 8 (D)Lys; 10 Lys(PEG12_Palm); 11 (D)Lys; 12 Pen; C-term NH2
B4: Seq. No. 339 (peptide)
peptide: DTHXPCIKFKXC
modifications: N-term isovaleric acid; 4 Dpa; 8 (D)Lys; 10 Lys(PEG12 Palm); 11 Dab; C-term NH2
B5: Seq. No. 341 (peptide)
peptide: DTHXPCIKFKC
modifications: N-term isovaleric acid; 4 Dpa; 8 (D)Lys; 10 Lys(PEG12_Palm); C-term NH2
B6: Compd. ID 9 (peptide)
peptide: DTHXPCIKXKC
modifications: N-term isovaleric acid; 4 Dpa; 8 Lys[1Peg2-1Peg2-isoGlu-Behenic_Acid]; 9 bhPhe; 10 (D)Lys; C-term NH2
B7: Seq. No. 338 (peptide)
peptide: DTHXPCIKFKXC
modifications: N-term isovaleric acid; 4 Dpa; 8 (D)Lys; 10 Lys(PEG12 Palm); 11 bhLys; C-term NH2
B8: Seq. No. 340 (peptide)
peptide: DTHXPCIKFKXC
modifications: N-term isovaleric acid; 4 Dpa; 8 (D)Lys; 10 Lys(PEG12_Palm); 11 Orn; C-term NH2
B9: Seq. No. 345 (peptide)
peptide: DTHXPCIKXKKC
modifications: N-term isovaleric acid; 4 Dpa; 8 (D)Lys; 9 Dpa; 10 Lys(PEG12_Palm); 11 (D)Lys; C-term NH2

Positions of bridges follow the written chain, without caps; N, C: chain ends. Non-standard residues stand in square brackets, D forms with d. Groups on a side chain read outwards from the residue. *: point of attachment. PEG12 = NCCOCCOCCOCCOCCOCCOCCOCCOCCOCCOCCOCCOCCC(=O)O; Phe(3,4-F2) = N[C@@H](Cc1ccc(F)c(F)c1)C(=O)O; Dip = N[C@H](C(=O)O)C(c1ccccc1)c1ccccc1; Palmitoyl = CCCCCCCCCCCCCCCC(=O)*; β3hF = N[C@H](CC(=O)O)Cc1ccccc1; Isovaleryl = CC(C)CC(=O)*; Dap = NC[C@H](N)C(=O)O; Npc = nipecotic acid

The first assay concerns the target T1, human ferroportin (SLC40A1) fused in …. Kind of assay: cell-based or functional assay.
Consider B1, for which the “FPN EC50” value amounted to 2.54 nM.

For a further assay, the target named is T2, human ferroportin (SLC40A1) fused in frame with GFP (human). Kind of assay: cell-based or functional assay.
The molecule B2 came in with an IC50: FPN internalisation of 6.16 nM.

B3: the IC50: FPN internalisation stood at 7.75 nM.

In the case of B4, the IC50: FPN internalisation worked out at 22.8 nM.

B5 gave an IC50: FPN internalisation of 22 nM.

In turn, B6 yielded an FPN EC50 of 18.4 nM.

Molecule B7 registered an IC50: FPN internalisation of 20.4 nM.

In turn, B8 showed an IC50: FPN internalisation of 26.9 nM.

In the case of B9, the IC50: FPN internalisation stood at 23 nM.

The values are drawn from patent US20240018189A1 (PROTAGONIST THERAPEUTICS, published 2024).
